This series can be described thus: soluble on expression in E. coli; label from the status in PepcDB or PDB records.
In the case of “MGSDKIHHHHHHMGKFLVEREQMRYPVDVYTGKIQAYPEGKPSAIAKIQVDGELMLTELGLEGDEQAEKKVHGGPDRALCHYPREHYLYWAREFPEQAELFVAPAFGENLSTDGLTESNVYMGDIFRWGEALIQVSQPRSPCYKLNYHFDISDIAQLMQNTGKVGWLYSVIAPGKVSADAPLELVSRVSDVTVQEAAAIAWHMPFDDDQYHRLLSAAGLSKSWTRTMQKRRLSGKIEDFSRRLWGK”, the “soluble on expression in E. coli” value is given as “not soluble”.

In the case of “MGILKSLFTLGKSFISQAEESIEETQGVRMLEQHIRDAKAELDKAGKSRVDLLARVKLSHDKLKDLRERKASLEARALEALSKNVNPSLINEVAEEIARLENLITAEEQVLSNLEVSRDGVEKAVTATAQRIAQFEQQMEVVKATEAMQRAQQAVTTSTVGASSSVSTAAESLKRLQTRQAERQARLDAAAQLEKVADGRDLDEKLAEAGIGGSNKSSAQDVLARLQRQQGELEHHHHHH”, the “soluble on expression in E. coli” value was “not soluble”.

In the case of “MGSDKIHHHHHHMELDDAYANGAYIEGAADYPPRWAASAEDFRNSLQDRARLNLSYGEGDRHKFDLFLPEGTPVGLFVFVHGGYWMAFDKSSWSHLAVGALSKGWAVAMPSYELCPEVRISEITQQISQAVTAAAKEIDGPIVLAGHSAGGHLVARMLDPEVLPEAVGARIRNVVPISPLSDLRPLLRTSMNEKFKMDADAAIAESPVEMQNRYDAKVTVWVGGAERPAFLDQAIWLVEAWDADHVIAFEKHHFNVIEPLADPESDLVAVITA”, the “soluble on expression in E. coli” value is on record as “not soluble”.

On to “MKIAIVGAGIGGLTAAALLCEQGHEVKVFEKNSTITEVGAGIGIGGNVIDKLGKHDLAKGIKNIGQVINVMEILDDKDNVLSKAKLKKNTVNLTMTRQSLIDVIKSYVSESAIYTNHHVTHVDNNALKVVMHFEAQEAEAFDLCIGADGLHSNIRHTVAPNSKTQYQGYTVFRGLVEDIDIKSDNVAKEYWSAKGRVGVVPLLNNQAYWFISINAKENDATMQSYGKPHLQARFNHFPNEVRKVLDKQSETDILLHDIYDLQPLKTFVYQRVILLGDAAHATTPNMGQGAGQAMEDAIVLANCLQAYPFEAALQRYDKIRVDHTKKVIKRSRKIGKLAQRSNKIVISLRNSIAKIMPNRLVAAQTKFIYKSKNKLEHHHHHH”, for which the “soluble on expression in E. coli” value is recorded as “soluble”.

“MPNSSILLIFLLTIVILIAPEENHKTYCEVLTSNNSNCTAYCKEKPECSWGRCEGYFKTNCVCYSDKYQFCE”: the “soluble on expression in E. coli” value is listed as “not soluble”.

On to “MSQLVLDLKCLKDKIATNYDIHNNVYGGNGMEPNIIHPSKRFRIVVRLVDFLFCKSDEEFIKGFFCQMIVRNLHCLNSTNGAEEMRLYMSERLFSAHKDDLRLINGQVLDVRIGVWYGIHQSPPIFEIIDFKILSRNDVRDFCEFVKSPLGEKFLNISNS”, for which the “soluble on expression in E. coli” value is on record as “not soluble”.

“MQEEVNEKTVSLCITGGKVTARLLKQAMMRFLAAMEKEKAEKARKQQVKGPPDKDYHGKQSLKKLAQQNVQLSNIEITDNNIKAFEKVAKKYGIDFSLKRDKSVDPPRYFVFFKARDVDVMTAAFREFTGKTLNKTKKPSVRKKLQQAIAARSQDKQREREKSKEKQKEPTL”: the “soluble on expression in E. coli” value was “not soluble”.

For the sequence “MPCSFAPGFLALTVAIHPGTTAQPSQQSPRAFPFFRPVLAQLMKHRVAQESTRRWLDRIIQIIKYAYCQKLRRHFCQATLWKMIQLIVNGQSQLVPSPDSGTDSGTTNDARLNIRQLLEHMGLQGKRIAVERNGEIVPRSQFDQPMLASGDKLEIVVAVGGGLEHHHHHH”, the “soluble on expression in E. coli” value is on record as “not soluble”.

For “MGFQNLWFSHPRKFGPGSRSCRVCAGHHGLIRKYGLDLCRRCFREQARDIGFKKLD”, the “soluble on expression in E. coli” value is reported as “not soluble”.

For the sequence “MPPPTASTPDDSADPGPDFADVPPTDLVKVGFIFRPHGLDGELKIDPSATDDPARFEVLPTVFVGPHPRRVVRHDIASVRYQKTKRGITVILGLDGIVDRDDAEAVAKMDVFATEAALGLEDDELFADDLVGWTVVTEEGAVQGTVADFMEMPAQDLFVVRTPEDTEAMIPAIDDFIIEIDEEAERIVVRPIDGLMDALEHHHHHH”, the “soluble on expression in E. coli” value is given as “not soluble”.

“MGNWAEITDEISKIYQDNQYKIRQINDVDAVSDKRREALQALFEHTGRNVIVYYSAWLENGRRFSGQSTDFSVNDTDKNSFMTALHKLDQSKGLDLILHTPGGDVAATESLVDYIHALFGQDFRVIVPQLAMSAGTMIALSSKEIVMGKHSSLGPIDPQFNGLPAHGLLEEFEQAKKEVSENPQTAHIWQVILNKYNPTMLGEAKKAIQWSNSMVKQWLEKGMFLDEPDKEEKATRAIKELADHSVTLAHNRHISVSKALELGLNIKELESDPKLQDLVLTLHHLSVIAAQRGPLIKFVVNHDNRGTFLQGHEN”: the “soluble on expression in E. coli” value is “soluble”.

Consider “MGSDKIHHHHHHMSYDLPRLTPDKDFKVPSACGVSGIMNTSGKRFSGSVIVESMALMRERGNGLGAGYAAYGIYPELKDLYCFHMLYDSDLDKKNAEEYIKDHYEIIESEPIPTRKNPHIKEVHILWRYFLKPKFIPEDMSEEDFVVSTVMFINEKINGAFVMSSGKNMGVFKGVGFPEDIADFYRIDEYKGYIWTAHNRFPTNTVGWWGGAHPFGILDWTVVHNGEISSYGINRRFLEAYGYKCTLMTDTEVVAYLVDLFMRRFGYSPQLTAKILAAPLWKDIDLMPEEERKLYTALRMNYGGALLNGPFAIIVANNNMMMGLNDRIKLRPLVAATKDDFLYIASEESAIRVVCPEPDEVWAPKAGDPVVGVLKSARKTQVVLEGENG”, for which the “soluble on expression in E. coli” value is reported as “not soluble”.

Regarding “MSLKVALVHDWLTNMGGAERVIINLKEIYKEAPIYTSLYNPDKLDDELRNIDVRTSFLQKPKNIKRGHQKLLPFMPMAFESFDLNEYDIVLSSCSSCAKGVVTNPNTMHVCYCHTPMRYAWEYYYEYADEWGLNKLKGKLLKYVMNYIRLWDGVSSKRVDYYIANSQNVAKRIWKHYKRESVVIHPPVRCKLFDISDVNEEYFLIVSRLVPYKRIDLAVEVFNELGLPLVVIGGGKDLDRLKNMAKDNIKFLGRQSDEVIKEYYSKCRAFIFPGEEDFGITPLEAQASGRPVIAYGKGGALETVVSGVTGVFFKEQTVDSLKSAVNEFEKINFDKSVIRRHAEEFDEEIFKKKIREYLSRSYDEFKKLKKWKVEGHHHHHH”, the “soluble on expression in E. coli” value is recorded as “soluble”.

For “MPASQIKSAVTSPLLPQSPSLFEKYPRPHKKLKQLHWEKLDCTDNSIWGTGKAEKFADDLYEKGVLADLEKAFAAREIKSLASKRKEDLQKITFLSRDISQQFGINLHMYSSLSVADLVKKILNCDRDFLQTPSVVEFLSKSEIIEVSVNLARNYAPYSTDWEGVRNLEDAKPPEKDPNDLQRADQIYLQLMVNLESYWGSRMRALTVVTSYEREYNELLAKLRKVDKAVSALQESDNLRNVFNVILAVGNFMNDTSKQAQGFKLSTLQRLTFIKDTTNSMTFLNYVEKIVRLNYPSFNDFLSELEPVLDVVKVSIEQLVNDCKDFSQSIVNVERSVEIGNLSDSSKFHPLDKVLIKTLPVLPEARKKGDLLEDEVKLTIMEFESLMHTYGEDSGDKFAKISFFKKFADFINEYKKAQAQNLAAEEEERLYIKHKKIVEEQQK”, the “soluble on expression in E. coli” value was “soluble”.

Turning to “MNLNQLTGADLMAARTHIGLSISAVAKLTGINRNTLSQFEQEKASLSGSEKKRLAGCYEERGYHFDEPQTTDETVLATRYDDARERLVDAAYDVNMNGLGEAVLALADASHDLLSMLARPMDVAQEEVELDAVELPESYLEMHNVLQRHFLADKAGQMQGKVGFFKEDADERSAKLIAYMAQQYLTLLHAEMPEVVSLERDSLDDDSDNARVLDALANWTFYDALKEMTV”, the “soluble on expression in E. coli” value is reported as “not soluble”.

In the case of “EMGTADLGPSSVPTPTNVTIESYNMNPIVYWEYQIMPQVPVFTVEVKNYGVKNSEWIDACINISHHYCNISDHVGDPSNSLWVRVKARVGQKESAYAKSEEFAVCRDGKIGPPKLDIRKEEKQIMIDIFHPSVFVNGDEQEVDYDPETTCYIRVYNVYVRMNGSEIQYKILTQKEDDCDEIQCQLAIPVSSLNSQYCVSAEGVLHVWGVTTEKSKEVCITIFNSSIKGSLWIPVVAALLLFLVLS”, the “soluble on expression in E. coli” value is recorded as “soluble”.

As for “MSLAHVCSVILVRRSFDIHHEQQKISLHNESILLLDKNLADDFAFCSLDTRRLDIEELTVCHYLQNIRQLPRNLGLHSKDRLLINQSPPIQLVTAIFDSFNDPRVNSPILSKMLYLSCLSMFSHKKELIPLLFNSISTVSGKVERLISFDIAKRWYLRDIAERMYTSESLIKKKLQDENTCFSKILLASRMSMARRLLELRQIPLHTIAEKCGYSSTSYFINTFRQYYGVTPHQFSQHSPGTEGHHHHHH”, the “soluble on expression in E. coli” value is “soluble”.

With “MSLQHNGHSYTVEGLINDSTLNGQTLYISRYDDGMKVDSTQVTNGQFKFTGKADIPCFCRIDAGREYANFILEGGNIQVNVLTHNDPKGTPMNEEYTHISDKTSELVTELRKRHAAIEQQTEDKSEQLRLKKEYADTYWHPTYTRLYKDMFMKNPDNALGEFAIRELAMCALPEEMDTIFAASGPWLKSLSVYHRIEKQFQGMKATAVGQKFTDFSGKTIDGAASSLSDFVGKGQYTLVDFWASWCGPCRSESPHIAELYNTYKDKGLTVLGVAVWDKPENTKKAIKELNIDWPQIIDTGMTPMDLYGVKGIPFILLFGPDGTIIARDLRGEGMKNKVAEVLNNKEGHHHHHH”, the “soluble on expression in E. coli” value is on record as “soluble”.

With “MNESIYTTPQSSKTPKSKSARYSSPYQVIDLNNESQEDLKTRLLEAENIIQDLRSERDALHESLVDKAGLNESVIIERSNKVSTQETRIYRRDVTLLEDDLKQKESQIRILQNRCLRLETEKQKMQDTISGYQEDLKENEIRIENLNSRLHKLEDELSAKTHEIFSIGEELKNKTMKLNEKNSQFQTKLAEISSENRNLERKVQKFREELIVKDQRSLEVHQDQENTQKVLKEVKQLSDRLDYLTPKRKDVSRIKERDDFLQFSAKIIEETMSELKLKNARLERELSEKEELVKVTKEELQELQKTVTQAMGDSEQATKYLHAENMKLTRQKADIRCDLLEARRNLKGFDEKREELEKQRDEALEDVRRITELKKNVEIELRSLKLLAEEREEQIDELKSRVAGYEVLRRDHEAVKNELAKAEEKLNKMGAHLVMADKQSSHFKTLKETAEGSRRRAIEQCNEMVARIRGLEASLENQRKVEQELEMVKAENVRQAKKIEFMKEEIQETHLDYREELSKLAKGGGSHEADSQRDSELRSAKKTIQEVKADNKKLQQILEEVRQNQSKVLEENVKLRKGMAEAIEKIEEFKRNWHSSREAGERLQLEAKENEEKVLKVEEELQEKRLEVLEKEELVNYLQSQINTKQTKQPKLSRRSTLMSTISEVDTSTYVREVEEVRALEEQREELQAYLAEKRKMADLQKSRSTANTTTLITSTTATEVSKSACELSYPPATMRHDIPHKWLEFRHYSVLSMKCSLCFVGITFFTKANKCSHCDVRVHASCAPRVNNTCGIPAQCATYYQDAQAVGGIGRMNGWLRVYRDDLPESTWTSLWAMMDSNHVKFYRDAGADNLENPYFTIDLNKEQWILRTGQEVAIPGDVMRNVLTIKLQTRSVHIVAPTPKSAERWAACLQNAQTRRMMKNSKPSSIAEYSCLLTLSLPNNLKIFKAHTIEDWILFATQTGLFFTSISQPRNPTRIAGPSSVTSLEVMSEINCVAMITNSNRQLALIPLDSLTLAMQSTHPSIRAEVLPEFGHVHTIRYHQQDGQRFLLVSDDTQLHIRKYNSTRDVFAHFAKLVVPEPVSFIESTPAGFIFASDTFYYVPLDHQSPSDVSARKLMPPRRSDYPVSAHAITANEILLAYQNHGIFVNLYGEQSRNQIIEWEKMPIEFAYTSPLLYIVHDDSIEIVQISKSSKETVLAEREVIACVNAHIVQSDGVLISVSSKDITEVHRFSATCRGTGTKRRGISPFNTLKRSKN”, the “soluble on expression in E. coli” value was “not soluble”.

Turning to “MKEYLTNERIRAKQVRVVGPDGKQLGIMDTREALRLAQEMDLDLVLVGPNADPPVARIMDYSKWRYEQQMAEKEARKKAKRTEVKSIKFRVKIDEHDYQTKLGHIKRFLQEGHKVKVTIMFRGREVAHPELGERILNRVTEDLKDLAVVEMKPEMLGRDMNMLLAPVKVSA”, the “soluble on expression in E. coli” value is given as “soluble”.

For the origin of these results see the DeepSol protein solubility set.
